Patent US8173771B2, “Humanin receptor or humanin-like polypeptide receptor” (Keio Univeristy, priority 2005, dated 2012)
Ends that are not written are not given here.

Experiments:
[1] = target: T1, Humanin receptor (HNR) overexpressed in F11 cells: human CNTF-R/WSX-1/gp130 (human, UniProt P26992 23-342; Q6UWB1 33-636; P40189 23-918); assay: cold competitor in binding assay (2), F11 cells transfected with human CNTF-R/WSX-1/gp130
T1 construct: whole, on cells; The three human subunits co-transfected into F11 cells, which also carry the endogenous receptor; also called both the CNTF receptor and WSX-1; not shown: C-terminal V5 tag; C-terminal myc-His tag
Procedure: A) F11 cells were seeded on 96-well plates coated with poly-L-lysine (7 ×10^3 cells/well). […] On the other hand, F11 cells were transfected with 0.5 μg of pcDNA3.1/GS-human CNTF-R, pEF1/MycHis-human WSX-1, and 1.0 μg of pCAG-human gp130. At 24 hrs after the transfection, the cells were re-seeded on 96-well plates coated with poly-L-lysine (7 ×10^3 cells/well).
(§1) F11 cells (7×10^4/well in 6-well plates) were replated into 96-well plates (7×10^3 cells/well) at 24 hrs after transfection with indicated amounts of the plasmids encoding mycHis-WSX or V5-CNTF-R, and with PCAG-human gp130 if required. […] After 6 hrs incubation, they were fixed with 4% paraformaldehyde in PBS for 30 min. After washing with PBS, cells were stained with FITC-conjugated avidin (Molecularprobe, Eugene, Oreg., USA). Immunofluorescence intensity was measured (excitation=485 nm, emission=535 nm) with a spectrofluorometer (Wallac1420 ARVOsx Multi Label Counter). Immunohistochemical analysis was done with a laser-scanning, confocal microscope LSM (Carl Zeiss, Germany).

[2] = target: T2, C-terminally myc-tagged human WSX-1 (mycHis-WSX-1) (human, UniProt Q6UWB1 33-636); assay: cold competitor (10 µM) in binding assay (1), F11 cells expressing human WSX-1 and gp130
T2 construct: whole, on cells; in the pull-down and co-immunoprecipitation it stood in cell lysates; also called myc-WSX-1; IL-27 receptor; not shown: C-terminal myc-His tag of the pEF-mycHis vector
T2 sequence (looked up): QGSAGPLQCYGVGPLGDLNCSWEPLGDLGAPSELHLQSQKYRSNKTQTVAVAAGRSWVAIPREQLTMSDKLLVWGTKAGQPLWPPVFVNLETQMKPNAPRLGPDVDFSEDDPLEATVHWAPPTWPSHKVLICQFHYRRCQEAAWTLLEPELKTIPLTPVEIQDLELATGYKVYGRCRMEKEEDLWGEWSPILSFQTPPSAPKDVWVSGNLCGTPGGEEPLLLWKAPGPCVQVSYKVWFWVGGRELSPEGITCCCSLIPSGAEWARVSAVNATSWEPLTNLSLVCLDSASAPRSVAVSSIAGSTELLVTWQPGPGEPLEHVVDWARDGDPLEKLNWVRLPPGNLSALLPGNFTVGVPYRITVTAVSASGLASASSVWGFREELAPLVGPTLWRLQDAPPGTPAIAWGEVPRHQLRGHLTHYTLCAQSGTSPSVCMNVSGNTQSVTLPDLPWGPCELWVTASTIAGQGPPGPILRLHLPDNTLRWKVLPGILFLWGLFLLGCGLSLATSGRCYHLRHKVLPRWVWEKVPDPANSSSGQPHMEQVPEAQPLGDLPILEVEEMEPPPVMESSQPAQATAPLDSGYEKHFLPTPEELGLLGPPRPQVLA
Procedure: (§2) B) F11 cells were transfected with 0.5 µg of pEF-myc His human CREME9 or pEF-mycHis human WSX-1 in association with 0.5 µg of pCAG-human gp130. […] Fluorescence signals were detected with a laser-scanning, confocal microscope LSM (Carl Zeiss, Germany) (right panels).
as §1

[3] = target: T3, myc-tagged mouse CREME9 (mouse, UniProt Q9Z2L7 1-442); assay: immunofluorescence-based HN binding assay (1) on F11 cells overexpressing CREME9 and human gp130
T3 construct: whole, on cells; Methods say mouse CREME9; Co-expressed with human gp130 in F11 cells; also called CRL4; pEF-mycHis CREME9; not shown: myc-His tag
T3 sequence (looked up): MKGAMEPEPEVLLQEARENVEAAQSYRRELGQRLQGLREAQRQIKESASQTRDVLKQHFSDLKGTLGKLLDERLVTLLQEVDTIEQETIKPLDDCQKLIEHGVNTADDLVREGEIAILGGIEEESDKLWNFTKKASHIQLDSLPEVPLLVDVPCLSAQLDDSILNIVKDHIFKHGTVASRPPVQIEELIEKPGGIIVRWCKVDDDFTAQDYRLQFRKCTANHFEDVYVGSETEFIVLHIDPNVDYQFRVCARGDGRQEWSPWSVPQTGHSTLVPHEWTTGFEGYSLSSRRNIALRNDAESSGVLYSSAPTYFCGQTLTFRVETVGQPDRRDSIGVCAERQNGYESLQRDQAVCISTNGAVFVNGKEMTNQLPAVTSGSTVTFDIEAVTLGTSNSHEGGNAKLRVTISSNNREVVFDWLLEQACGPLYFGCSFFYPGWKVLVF
Procedure: as §2, §1

[4] = system: F11 cells; assay: Neuronal cell death of F11 cells induced by overexpression of FAD genes (V642I-APP, M146L-PS1), WST-8 / Trypan blue; format: cell-based
Procedure: D) F11 cells were transfected with 0.5 μg of the pcDNA3 vector or pcDNA3-V642I-APP in association with 0.5 μg of the pEFBos vector or pEFBos-wild-type human gp130 (gp130wt). At 24 hr after transfection, the cells were added with 1 μg of neutralizing anti-mouse gp130 antibody. Cell mortality (left panel) and cell viability (right panel) were determined by Trypan blue exclusion assay and WST-8 assay at 72 hr after transfection. Below are shown the results of the expression of V642I-APP, and human gp130wt, which were confirmed by immunoblot analysis (photos).
B) F11 cells were transfected with 0.5 μg of the pcDNA3 vector or pcDNA3-V642I-APP in association with pRNA-U6.1/Shuttle vector (NO), pRNA-U6.1/Shuttle-siWSX-1 (W), pRNA-U6.1/Shuttle-siCNTF-R (C), or pRNA-U6.1/Shuttle-siFPR-2 (F) (Hashimoto et al. 2005). At 24 hrs after transfection, the cells were added with or without 10 nM of HNG. At 72 hrs after transfection, the cells were harvested for WST-8 assays. […]
F11 cells were transfected with pcDNA3 vector or pcDNA3-V642I-APP. […] The expression of V642I-APP determined by immunoblot analysis was shown below in a photo. […]
The transfection procedures were as described (Hashimoto et al, 2000, 2001a, 2003). […] Transfection efficiency in these protocols has been determined to be invariably around 70%. […]

[5] = system: primary cortical neurons (PCNs); assay: Aβ neurotoxicity in primary cortical neurons, WST-8 / Calcein / LDH; format: cell-based, mouse; settings: PCN, 10 μM Aβ (1-43)
Procedure: B) PCNs were incubated with 25 μM Aβ (upper) in the presence of 10 μg of recombinant soluble human gp130 (lower “+”) or BSA (lower “−”). Cell viability was determined by WST-8 assay (upper) or Calcein fluorescence assay (lower) at 72 hr after the onset of treatment with Aβ.
C) PCNs were incubated with 25 μM Aβ (1-43) in the presence of 1 μg of neutralizing anti-mouse gp130 antibody (RX435) or control IgG. Cell viability and cell mortality were determined by Calcein fluorescence (left panel) and LDH assays (right panel), respectively, at 72 hr after the onset of treatment with Aβ (1-43).
[…] At 72 hr after incubation, the cells were harvested for WST-8 assays or/and Calcein fluorescence assays to show cell viability.
B) The soluble IL-6 receptor-α (sIL-6R) or the soluble CNTF-R (100 ng/ml) were added to the cells as in the above A), followed by the stimulation with its ligand, IL-6 or CNTF (100 ng/ml), respectively to show the effects on the neuronal cell death due to Aβ. The right and left graphs show the cell viabilities determined by WST-8 assays and Calcein fluorescence assays, respectively.
C) The neutralizing antibodies (1 μg) for the mouse gp130, mouse LIFR, mouse IL-11R and rat CNTF-R were added as in the above A), and cell viability was determined by Calcein fluorescence assays after 72 hours.
WST-8 assay was performed at 72 hrs after the treatment.
The primary culture of mouse cortical neurons was prepared as described previously (Sudo et al., 2000). Briefly, primary cortical neurons, obtained from embryonic day 14 (E14) ICR mice were seeded in poly-L-lysine-coated 96 well plates (Sumitomo Bakelite) at 2.5 or 5.0×10^4 cells/well in Neuron Medium (Sumitomo Bakelite) (Hashimoto et al., 2003; Niikura et al., 2004). Purity of neurons by this method was >98%. After 3 days, the culture medium was replaced with DMEM with N2 supplement. On the fourth day in vitro, 25 μM of Aβ (1-42) was added in association with indicated concentrations of HN or cytokines in the presence or the absence of soluble cytokine receptors or neutralizing antibodies. At 72 hrs after the onset of treatment, cell viability was assessed by WST-8 assay and/or Calcein fluorescence assay and cell mortality was assessed by the Trypan blue exclusion assay and LDH assay (Hashimoto et al, 2000, 2001 a b, 2003).

[6] = system: STAT3; assay: Immunoblot of phosphotyrosine 705 of STAT3 in F11 cells; format: cell-based; settings: F11 cells, 15 min
Procedure: E) F11 cells were transfected with an indicated amount of pRNA-U6.1/Shuttle vector (empty), pRNA-U6.1/Shuttle-IL-6R siRNA, or pRNA-U6.1/Shuttle-LIFR siRNA. At 48 hrs after transfection, the cells were treated with 100 ng/ml IL-6, 100 ng/ml CNTF or 1 μM HNG at 37° for 15 min, and harvested. The results of immunoblot analysis using anti-phophoSTAT3 ([…]) antibody and anti-STAT3 antibody were shown in photos. A) F11 cells were added with an indicated amount of HN, HNG or HNA and harvested 15 min later for immunoblot analysis with antibodies recognizing phosphotyrosine 705 of STAT3 or STAT3. The results are shown in photos. B) F11 cells were transfected with 0.5 μg of pRNA-U1.6/Shuttle vector, pRNA-U6.1/Shuttle-WSX-1 siRNA, pRNA-U6.1/Shuttle-CNTF-R siRNA, both pRNA-U6.1/Shuttle-WSX-1 siRNA and pRNA-U6.1/Shuttle-CNTF-R siRNA (0.5 μg each), or pRNA-U6.1/Shuttle-FPR2 siRNA. The total amount of vectors was adjusted to be 1.0 μg by including a backbone vector. […] The results are shown in photos. Cell lysates (10-20 μg/lane) or pulled-down precipitates were subject to SDS-PAGE, and the proteins separated on the gel were transferred onto polyvinylidene difluoride membranes as described (Hashimoto et al, 2000). Visualization of the immunoreactive protein bands was performed by ECL (Amersham Pharmacia Biotech, Uppsala, Sweden).

T1 sequence (P26992 23-342, chain 1 of 2): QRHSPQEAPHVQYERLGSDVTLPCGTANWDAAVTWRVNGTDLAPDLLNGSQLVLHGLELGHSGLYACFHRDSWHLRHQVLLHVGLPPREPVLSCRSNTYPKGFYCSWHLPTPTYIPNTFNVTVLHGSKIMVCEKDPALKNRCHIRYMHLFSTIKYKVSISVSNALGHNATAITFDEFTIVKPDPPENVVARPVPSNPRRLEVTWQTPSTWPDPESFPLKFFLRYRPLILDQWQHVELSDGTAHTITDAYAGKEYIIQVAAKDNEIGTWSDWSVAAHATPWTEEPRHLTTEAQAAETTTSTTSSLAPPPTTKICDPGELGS
T1 sequence (P40189 23-918, chain 3 of 2): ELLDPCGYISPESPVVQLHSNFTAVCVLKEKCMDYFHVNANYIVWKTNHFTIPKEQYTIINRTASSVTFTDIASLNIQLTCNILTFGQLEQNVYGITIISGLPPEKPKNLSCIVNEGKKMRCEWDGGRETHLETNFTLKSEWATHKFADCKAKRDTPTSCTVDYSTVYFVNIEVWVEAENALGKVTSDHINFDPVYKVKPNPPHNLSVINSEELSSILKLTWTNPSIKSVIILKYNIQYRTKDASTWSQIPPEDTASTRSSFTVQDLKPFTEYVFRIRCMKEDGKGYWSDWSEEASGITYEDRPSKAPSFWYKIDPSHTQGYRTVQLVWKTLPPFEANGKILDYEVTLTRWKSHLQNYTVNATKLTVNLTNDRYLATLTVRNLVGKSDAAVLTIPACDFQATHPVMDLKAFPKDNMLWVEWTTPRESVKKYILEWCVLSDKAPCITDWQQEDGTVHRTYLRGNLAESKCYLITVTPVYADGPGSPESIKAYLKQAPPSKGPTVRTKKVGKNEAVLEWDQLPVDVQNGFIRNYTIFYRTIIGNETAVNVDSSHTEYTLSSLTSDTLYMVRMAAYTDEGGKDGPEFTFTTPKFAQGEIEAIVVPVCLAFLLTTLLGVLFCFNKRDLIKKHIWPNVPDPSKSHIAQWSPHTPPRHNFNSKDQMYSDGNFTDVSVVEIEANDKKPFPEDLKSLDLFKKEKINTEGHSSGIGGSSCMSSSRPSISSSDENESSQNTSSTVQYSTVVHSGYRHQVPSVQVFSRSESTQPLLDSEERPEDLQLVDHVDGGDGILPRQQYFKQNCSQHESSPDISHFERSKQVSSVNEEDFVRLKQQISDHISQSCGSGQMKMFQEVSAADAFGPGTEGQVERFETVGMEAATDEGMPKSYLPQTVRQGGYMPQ

B1: S14G-Humanin (HNG) (peptide)
peptide: MAPRGFSCLLLLTGEIDLPVKRRA
notes: also called S14G-HN
binding result [1]: binds | binding result [2]: binds

B2: biotin-labeled HNG-FLAG (peptide)
peptide: MAPRGFSCLLLLTGEIDLPVKRRA
modifications: also: biotin label, position not given here, FLAG tag, sequence and position not given here
notes: the identity is therefore uncertain; not shown: FLAG tag
binding result [3]: no binding (tested: 100 nM)

B3: IL-27: IL-27 (IL-27p28/EBV-induced gene 3), IL-6/IL-12 family cytokine binding to WSX-1/gp130 (protein)
chain 1: FPRPPGRPQLSLQELRREFTVSLHLARKLLSEVRGQAHRFAESHLPGVNLYLLPLGEQLPDVSLTFQAWRRLSDPERLCFISTTLQPFHALLGGLGTQGRWTNMERMQLWAMRLDLRDLQRHLRFQVLAAGFNLPEEEEEEEEEEEEERKGLLPGALGSALQGPAQVSWPQLLSTYRLLHSLELVLSRAVRELLLLSKAGHSVWPLGFPTLSPQP
chain 2: RKGPPAALTLPRVQCRASRYPIAVDCSWTLPPAPNSTSPVSFIATYRLGMAARGHSWPCLQQTPTSTSCTITDVQLFSMAPYVLNVTAVHPWGSSSSFVPFITEHIIKPDPPEGVRLSPLAERQLQVQWEPPGSWPFPEIFSLKYWIRYKRQGAARFHRVGPIEATSFILRAVRPRARYYVQVAAQDLTDYGELSDWSLPATATMSLGK
concentration range showing HN-like effect (activity) ([4]; WST-8): 1 to 10 µM | concentration range suppressing the HN effect ([4]; given with HNG): ≤ 100 nM | effect on the HN effect ([5]; 10 nM HNG): suppressed the HN effect | HN-like effect ([5]; higher concentration range): had the HN-like effect | phosphorylation of tyrosine 705 of STAT3 [6]: increased
